Assay results from patent US20180346602A1.

What was measured:
[1] = target: anti-VEGF/ANG2 antibody (IgG1 subclass with mutations P329G/L234A/L235A) [IgG part: P01857]; test: sandwich ELISA assay A; capture M1.7.10-Bi; antibody 2 at 13 ng/mL
[2] = target: anti-VEGF/ANG2 antibody (IgG1 subclass with mutations P329G/L234A/L235A) [IgG part: P01857]; test: sandwich ELISA assay A; capture M1.7.10-Bi; antibody 2 at 3 ng/mL
[3] = target: anti-P-Selectin antibody (IgG4 subclass with mutations S228P/L235E) (human) [IgG part: P01861]; test: sandwich ELISA assay B; capture on SA plate; tracer M1.7.10-Dig; analyte 13 ng/mL
[4] = target: anti-VEGF/ANG2 antibody (IgG1 subclass with mutations P329G/L234A/L235A/I253A/H310A/H435A) (human) [IgG part: P01857]; test: as above
[5] = target: anti-VEGF/ANG2 antibody (IgG1 subclass with mutations P329G/L234A/L235A) (human) [IgG part: P01857]; test: as above
[6] = target: anti-IGF-1R antibody (IgG1 subclass with mutations I253A/H310A/H435A) (human) [IgG part: P01857]; test: as above
[7] = target: anti-IGF-1R antibody (IgG1 subclass with mutations I253A/H310A/H435A) [IgG part: P01857]; test: sandwich ELISA assay A; capture M1.7.10-Bi; antibody 3 at 25 ng/mL
[8] = target: anti-IGF-1R antibody (IgG1 subclass with mutations I253A/H310A/H435A) [IgG part: P01857]; test: sandwich ELISA assay A; capture M1.7.10-Bi; antibody 3 at 0 ng/mL (blank)
[9] = target: anti-VEGF/ANG2 antibody (IgG1 subclass with mutations P329G/L234A/L235A/I253A/H310A/H435A) [IgG part: P01857]; test: sandwich ELISA assay A; capture M1.7.10-Bi; antibody 1 at 0 ng/mL (blank)
[10] = target: anti-VEGF/ANG2 antibody (wild-type IgG1 subclass) [IgG part: P01857]; test: sandwich ELISA assay A; capture M1.7.10-Bi; antibody 5 at 13 ng/mL
[11] = target: anti-VEGF/ANG2 antibody (IgG1 subclass with mutations P329G/L234A/L235A/I253A/H310A/H435A) [IgG part: P01857]; test: sandwich ELISA assay A; capture M1.7.10-Bi; antibody 1 at 50 ng/mL
[12] = target: anti-P-Selectin antibody (IgG4 subclass with mutations S228P/L235E) (human) [IgG part: P01861]; test: sandwich ELISA assay B; capture on SA plate; tracer M1.7.10-Dig; analyte 6 ng/mL
[13] = target: anti-VEGF/ANG2 antibody (IgG1 subclass with mutations P329G/L234A/L235A/I253A/H310A/H435A) (human) [IgG part: P01857]; test: as above
[14] = target: anti-P-Selectin antibody (IgG4 subclass with mutations S228P/L235E) [IgG part: P01861]; test: sandwich ELISA assay A; capture M1.7.10-Bi; antibody 4 at 13 ng/mL
[15] = target: anti-P-Selectin antibody (IgG4 subclass with mutations S228P/L235E) (human) [IgG part: P01861]; test: sandwich ELISA assay C; capture on SA plate; tracer FcγRI-Dig; analyte 2 ng/mL
[16] = target: anti-VEGF/ANG2 antibody (IgG1 subclass with mutations P329G/L234A/L235A/I253A/H310A/H435A) (human) [IgG part: P01857]; test: as above
[17] = target: anti-VEGF/ANG2 antibody (IgG1 subclass with mutations P329G/L234A/L235A) (human) [IgG part: P01857]; test: as above
[18] = target: anti-IGF-1R antibody (IgG1 subclass with mutations I253A/H310A/H435A) (human) [IgG part: P01857]; test: as above
[19] = target: anti-P-Selectin antibody (IgG4 subclass with mutations S228P/L235E) [IgG part: P01861]; test: sandwich ELISA assay A; capture M1.7.10-Bi; antibody 4 at 6 ng/mL
[20] = target: anti-VEGF/ANG2 antibody (wild-type IgG1 subclass) [IgG part: P01857]; test: sandwich ELISA assay A; capture M1.7.10-Bi; antibody 5 at 0 ng/mL (blank)
[21] = target: anti-VEGF/ANG2 antibody (IgG1 subclass with mutations P329G/L234A/L235A) [IgG part: P01857]; test: sandwich ELISA assay A; capture M1.7.10-Bi; antibody 2 at 100 ng/mL
[22] = target: anti-P-Selectin antibody (IgG4 subclass with mutations S228P/L235E) (human) [IgG part: P01861]; test: sandwich ELISA assay B; capture on SA plate; tracer M1.7.10-Dig; analyte 0 ng/mL (blank)
[23] = target: anti-VEGF/ANG2 antibody (IgG1 subclass with mutations P329G/L234A/L235A/I253A/H310A/H435A) (human) [IgG part: P01857]; test: as above
[24] = target: anti-VEGF/ANG2 antibody (IgG1 subclass with mutations P329G/L234A/L235A) (human) [IgG part: P01857]; test: as above
[25] = target: anti-IGF-1R antibody (IgG1 subclass with mutations I253A/H310A/H435A) (human) [IgG part: P01857]; test: as above

signal [OD405 nm] [1] [OD405 nm] | signal [OD405 nm] [2] [OD405 nm] | signal [OD405 nm] [3] [OD405 nm] | signal [OD405 nm] [4] [OD405 nm] | signal [OD405 nm] [5] [OD405 nm] | signal [OD405 nm] [6] [OD405 nm] | signal [OD405 nm] [7] [OD405 nm] | signal [OD405 nm] [8] [OD405 nm] | signal [OD405 nm] [9] [OD405 nm] | signal [OD405 nm] [10] [OD405 nm] | signal [OD405 nm] [11] [OD405 nm] | signal [OD405 nm] [12] [OD405 nm] | signal [OD405 nm] [13] [OD405 nm] | signal [OD405 nm] [14] [OD405 nm] | signal [OD405 nm] [15] [OD405 nm] | signal [OD405 nm] [16] [OD405 nm] | signal [OD405 nm] [17] [OD405 nm] | signal [OD405 nm] [18] [OD405 nm] | signal [OD405 nm] [19] [OD405 nm] | signal [OD405 nm] [20] [OD405 nm] | Binder | also measured
0.051 | 0.039 | 0.042 | 0.041 | 0.066 | 2.85 | 2.51 | 0.046 | 0.058 | 0.045 | 0.06 | 0.04 | 0.039 | 0.05 | 0.067 | 0.077 | 0.072 | 0.082 | 0.041 | 0.042 | anti-AAA variant Fc-region antibody M1.6.22 (antibody, V domains shown) VH: EVQLVESGGDLVKPGGSLKLSCAASGFTFSSYGMSWVRQTPDKRLEWVATISSGGSYIYYPDSVKGRFTISRDNAKNTLYLQMSSLKSEDTAMYYCARLGMITTGYAMDYWGQGTSVTVSS VL: DVLMTQTPLSLPVSLGDQASISCRSSQTIVHSTGHTYLEWFLQKPGQSPKLLIYKVSNRFSGVPDRFSGSGSGTDFTLKISRVEAEDLGVYYCFQGSHVPYTFGGGTKLEIK | signal [OD405 nm] [21]: 0.076 OD405 nm; signal [OD405 nm] [22]: 0.038 OD405 nm; signal [OD405 nm] [23]: 0.047 OD405 nm; signal [OD405 nm] [24]: 0.038 OD405 nm; signal [OD405 nm] [25]: 0.037 OD405 nm
2.7 | 1.22 | 0.047 | 0.034 | 0.217 | 0.044 | 0.043 | 0.04 | 0.044 | 0.038 | 0.043 | 0.048 | 0.035 | 0.038 | 1.19 | 1.17 | 1.22 | 1.26 | 0.036 | 0.036 | anti-variant (human) Fc-region antibody M1.3.17 (antibody, V domains shown) VH: EVKLLESGGGLVQPGGSLKLSCAASGIDFRRYWMNWVRQAPGKGLEWIGEIDPDSSTINYTPSLKDKFIISRDNAKNTMYLQMRKVRSEDTALYYCARPYDYGAWFAYWGQGTLVTVSA VL: QAVVTQESALTTSPGETVTLTCRSTTGAVTTSNYANWVQEKPDHLFTGLIGGTNKRAPGVPARFSGSLIGDKAALTITGAQTEDEAIYFCALWYSDHWVFGGGTKLTVL | signal [OD405 nm] [21]: 3.04 OD405 nm; signal [OD405 nm] [22]: 0.049 OD405 nm; signal [OD405 nm] [23]: 0.035 OD405 nm; signal [OD405 nm] [24]: 0.038 OD405 nm; signal [OD405 nm] [25]: 0.045 OD405 nm
2.52 | 1.73 | 0.037 | 0.053 | 3.15 | 0.043 | 0.047 | 0.049 | 0.05 | 0.042 | 0.051 | 0.037 | 0.053 | 0.046 | 0.056 | 0.085 | 0.093 | 0.074 | 0.045 | 0.041 | anti-variant (human) Fc-region antibody M1.7.24 (antibody, V domains shown) VH: EVKLLESGGGLVQPGGSLKLSCAASGFDFSRYWMNWVRQAPGKGLEWIGEITPDSSTINYTPSLKDKFIISRDNAKNTLYLQMIKVRSEDTALYYCVRPYDYGAWFASWGQGTLVTVSA VL: QAVVTQESALTTSPGETVTLTCRSSTGAVTTSNYANWVQEKPDHLFTGLIGGTNKRAPGVPARFSGSLIGDKAALTITGAQTEDEAIYFCALWYSNHWVFGGGTKLTVL | signal [OD405 nm] [21]: 2.65 OD405 nm; signal [OD405 nm] [22]: 0.035 OD405 nm; signal [OD405 nm] [23]: 0.049 OD405 nm; signal [OD405 nm] [24]: 0.046 OD405 nm; signal [OD405 nm] [25]: 0.04 OD405 nm
